B1: Disabled homolog 2 (Mus musculus), P98078 (parent)
chain: MSNEVETSTTNGQPDQQAAPKAPSKKEKKKGSEKTDEYLLARFKGDGVKYKAKLIGIDDVPDARGDKMSQDSMMKLKGMAAAGRSQGQHKQRIWVNISLSGIKIIDEKTGVIEHEHPVNKISFIARDVTDNRAFGYVCGGEGQHQFFAIKTGQQAEPLVVDLKDLFQVIYNVKKKEEDKKKVEEANKAEENGSEALMTLDDQANKLKLGVDQMDLFGDMSTPPDLNSPTESKDILLVDLNSEIDTNQNSLRENPFLTNGVTSCSLPRPKPQASFLPENAFSANLNFFPTPNPDPFRDDPFAQPDQSAPSSFDSLTSPDQKKASLSSSSTPQSKGPLNGDTDYFGQQFDQLSNRTGKPEAQGGPWPYPSSQTQQAVRTQNGVSEREQNGFHIKSSPNPFVGSPPKGLSVPNGVKQDLESSVQSSAHDSIAIIPPPQSTKPGRGRRTAKSSANDLLASDIFASEPPGQMSPTGQPAVPQSNFLDLFKGNAPAPVGPLVGLGTVPVTPPQAGPWTPVVYSPSTTVVPGAIISGQPPSFRQPLVFGTTPAVQVWNQSPSFATPASPPPPTVWCPTTSVAPNAWSSTSPLGNPFQSNNIFPPPTMSTQSSPQPMMSSVLATPPQPPPRNGPLKDIPSDAFTGLDPLGDKEVKEVKEMFKDFQLRQPPLVPSRKGETPPSGTSSAFSSYFNNKVGIPQEHVDHDDFDANQLLNKINEPPKPAPRQGVLLGTKSADNSLENPFSKGFSSSNPSVVSQPASSDPHRSPFGNPFA

Variants of: B1
Details: with sh3k1_human SH3KBP1, Q96B97
Sequence of sh3k1_human SH3KBP1, Q96B97 (Q96B97 whole entry): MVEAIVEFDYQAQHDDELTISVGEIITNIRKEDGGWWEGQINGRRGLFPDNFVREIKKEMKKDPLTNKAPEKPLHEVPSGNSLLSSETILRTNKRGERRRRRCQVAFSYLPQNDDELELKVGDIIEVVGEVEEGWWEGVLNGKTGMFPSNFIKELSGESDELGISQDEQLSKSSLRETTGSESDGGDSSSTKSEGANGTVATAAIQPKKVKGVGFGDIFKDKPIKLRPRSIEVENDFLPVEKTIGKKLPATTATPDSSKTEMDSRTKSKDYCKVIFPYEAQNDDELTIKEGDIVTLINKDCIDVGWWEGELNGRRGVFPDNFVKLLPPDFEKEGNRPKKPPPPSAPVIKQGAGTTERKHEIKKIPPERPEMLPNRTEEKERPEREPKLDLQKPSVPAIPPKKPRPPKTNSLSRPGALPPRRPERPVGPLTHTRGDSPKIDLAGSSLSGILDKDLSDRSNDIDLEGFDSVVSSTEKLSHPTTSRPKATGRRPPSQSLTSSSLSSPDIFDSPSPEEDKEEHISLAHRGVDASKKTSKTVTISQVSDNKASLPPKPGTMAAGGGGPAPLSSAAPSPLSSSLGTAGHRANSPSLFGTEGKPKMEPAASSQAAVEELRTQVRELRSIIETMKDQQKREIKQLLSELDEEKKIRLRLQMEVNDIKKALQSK

Variant	effect of a mutation on the interaction
R718A	disrupting interaction

Variants of: B1
Details: with sh3k1_human SH3KBP1, Q96B97
Remark: another data set of the same source

Variant	effect of a mutation on the interaction
R718A	decreasing interaction

Reference: IntAct's records for PubMed 14596919
